Source: IntAct's records for PubMed 25761904

B1: Dual oxidase maturation factor 2 (Homo sapiens), Q1HG44 (parent)
chain: MTLWNGVLPFYPQPRHAAGFSVPLLIVILVFLALAASFLLILPGIRGHSRWFWLVRVLLSLFIGAEIVAVHFSAEWFVGTVNTNTSYKAFSAARVTARVRLLVGLEGINITLTGTPVHQLNETIDYNEQFTWRLKENYAAEYANALEKGLPDPVLYLAEKFTPSSPCGLYHQYHLAGHYASATLWVAFCFWLLSNVLLSTPAPLYGGLALLTTGAFALFGVFALASISSVPLCPLRLGSSALTTQYGAAFWVTLATGVLCLFLGGAVVSLQYVRPSALRTLLDQSAKDCSQERGGSPLILGDPLHKQAALPDLKCITTNL
B2: Dual oxidase 2 (Homo sapiens), Q9NRD8 (parent)
chain: MLRARPEALMLLGALLTGSLGPSGNQDALSLPWEVQRYDGWFNNLRHHERGAVGCRLQRRVPANYADGVYQALEEPQLPNPRRLSNAATRGIAGLPSLHNRTVLGVFFGYHVLSDVVSVETPGCPAEFLNIRIPPGDPVFDPDQRGDVVLPFQRSRWDPETGRSPSNPRDLANQVTGWLDGSAIYGSSHSWSDALRSFSGGQLASGPDPAFPRDSQNPLLMWAAPDPATGQNGPRGLYAFGAERGNREPFLQALGLLWFRYHNLWAQRLARQHPDWEDEELFQHARKRVIATYQNIAVYEWLPSFLQKTLPEYTGYRPFLDPSISPEFVVASEQFFSTMVPPGVYMRNASCHFRKVLNKGFQSSQALRVCNNYWIRENPNLNSTQEVNELLLGMASQISELEDNIVVEDLRDYWPGPGKFSRTDYVASSIQRGRDMGLPSYSQALLAFGLDIPRNWSDLNPNVDPQVLEATAALYNQDLSQLELLLGGLLESHGDPGPLFSAIVLDQFVRLRDGDRYWFENTRNGLFSKKEIEDIRNTTLRDVLVAVINIDPSALQPNVFVWHKGAPCPQPKQLTTDGLPQCAPLTVLDFFEGSSPGFAITIIALCCLPLVSLLLSGVVAYFRGREHKKLQKKLKESVKKEAAKDGVPAMEWPGPKERSSPIIIQLLSDRCLQVLNRHLTVLRVVQLQPLQQVNLILSNNRGCRTLLLKIPKEYDLVLLFSSEEERGAFVQQLWDFCVRWALGLHVAEMSEKELFRKAVTKQQRERILEIFFRHLFAQVLDINQADAGTLPLDSSQKVREALTCELSRAEFAESLGLKPQDMFVESMFSLADKDGNGYLSFREFLDILVVFMKGSPEDKSRLMFTMYDLDENGFLSKDEFFTMMRSFIEISNNCLSKAQLAEVVESMFRESGFQDKEELTWEDFHFMLRDHDSELRFTQLCVKGGGGGGNGIRDIFKQNISCRVSFITRTPGERSHPQGLGPPAPEAPELGGPGLKKRFGKKAAVPTPRLYTEALQEKMQRGFLAQKLQQYKRFVENYRRHIVCVAIFSAICVGVFADRAYYYGFASPPSDIAQTTLVGIILSRGTAASVSFMFSYILLTMCRNLITFLRETFLNRYVPFDAAVDFHRWIAMAAVVLAILHSAGHAVNVYIFSVSPLSLLACIFPNVFVNDGSKLPQKFYWWFFQTVPGMTGVLLLLVLAIMYVFASHHFRRRSFRGFWLTHHLYILLYALLIIHGSYALIQLPTFHIYFLVPAIIYGGDKLVSLSRKKVEISVVKAELLPSGVTYLQFQRPQGFEYKSGQWVRIACLALGTTEYHPFTLTSAPHEDTLSLHIRAVGPWTTRLREIYSSPKGNGCAGYPKLYLDGPFGEGHQEWHKFEVSVLVGGGIGVTPFASILKDLVFKSSLGSQMLCKKIYFIWVTRTQRQFEWLADIIQEVEENDHQDLVSVHIYVTQLAEKFDLRTTMLYICERHFQKVLNRSLFTGLRSITHFGRPPFEPFFNSLQEVHPQVRKIGVFSCGPPGMTKNVEKACQLVNRQDRAHFMHHYENF
partner: B1 chain

Variants of: B1
Conditions: with duox2_human DUOX2, Q9NRD8

Row | effect of a mutation on the interaction | Variant
1 | disrupting interaction strength | MTLWNGVLPFYPQPRHAAGFSVPLLIVILVFLALAASFLLILPGIRGHSRWFWLVRVLLSLFIGAEIVAVHFSAEWFVGTVNTNTSYKAFSAARVTARVRLLVGLEGINITLTGTPVHQLNETIDYNEQFTWRLKENYAAEYANALEKGLPDPVLYLAEKFTPSSPGGLYHQYHLAGHYASATLWVAFCFWLLSNVLLSTPAPLYGGLALLTTGAFALFGVFALASISSVPLCPLRLGSSALTTQYGAAFWVTLATGVLCLFLGGAVVSLQYVRPSALRTLLDQSAKDCSQERGGSPLILGDPLHKQAALPDLKCITTNL [C167G]
2 | disrupting interaction strength | MTLWNGVLPFYPQPRHAAGFSVPLLIVILVFLALAASFLLILPGIRGHSRWFWLVRVLLSLFIGAEIVAVHFSAEWFVGTVNTNTSYKAFSAARVTARVRLLVGLEGINITLTGTPVHQLNETIDYNEQFTWRLKENYAAEYANALEKGLPDPVLYLAEKFTPSSPCGLYHQYHLAGHYASATLWVAFCFWLLSNVLLSTPAPLYGGLALLTTGAFALFGVFALASISSVPLGPLRLGSSALTTQYGAAFWVTLATGVLCLFLGGAVVSLQYVRPSALRTLLDQSAKDCSQERGGSPLILGDPLHKQAALPDLKCITTNL [C233G]

Variants of: B2
Conditions: with doxa2_human DUOXA2, Q1HG44

Row | effect of a mutation on the interaction | Variant
3 | with no effect | C351G
4 | disrupting interaction strength | C582G
5 | disrupting interaction strength | C568G
6 | decreasing interaction strength | C370G

Variants of: B2
Conditions: with doxa2_human DUOXA2, Q1HG44
Remark: another data set of the same source

Row | effect of a mutation on the interaction | Variant
7 | disrupting interaction strength | C124G

Variants of: B2
Conditions: with doxa2_human DUOXA2, Q1HG44
Remark: another data set of the same source

Row | effect of a mutation on the interaction | Variant
8 | disrupting interaction strength | C1162G
